Measurements taken from FireProtDB (doi:10.1110/ps.062645007).
Values joined by “and” are separate entries in the source; they are usually repeats but may differ in a detail not shown here. Equal values may be shown once.

Details: Salmonella typhimurium (strain LT2 / SGSC1412 / ATCC 700720); pH 7.4; Thermal; CD; Phosphate 10 mM; transition: 3; whole UniProt chain shown

B1: Cell invasion protein SipD wild type, Q56026 (protein)
chain: MLNIQNYSASPHPGIVAERPQTPSASEHVETAVVPSTTEHRGTDIISLSQAATKIHQAQQTLQSTPPISEENNDERTLARQQLTSSLNALAKSGVSLSAEQNENLRSAFSAPTSALFSASPMAQPRTTISDAEIWDMVSQNISAIGDSYLGVYENVVAVYTDFYQAFSDILSKMGGWLLPGKDGNTVKLDVTSLKNDLNSLVNKYNQINSNTVLFPAQSGSGVKVATEAEARQWLSELNLPNSCLKSYGSGYVVTVDLTPLQKMVQDIDGLGAPGKDSKLEMDNAKYQAWQSGFKAQEENMKTTLQTLTQKYSNANSLYDNLVKVLSSTISSSLETAKSFLQG
Tm: 75.7 °C and 76.6 °C
